Source: patent US9605064B2, “Methods and compositions for treatment of skin disorders” (AbbVie Biotechnology Ltd, priority 2006, dated 2017)
Values joined by “and” are separate entries in the source; they are usually repeats but may differ in a detail not shown here. Identical values can stand only once.

Tested on: patients with moderate to severe chronic plaque psoriasis
Test: Adverse events, Phase II trial with 48-week extension
Settings: for patients with serious adverse events (SAEs): 60-week trial
[1] = Week 0-12, 40 mg weekly (N = 50)
[2] = Week 0-60, 40 mg weekly (N = 50)
[3] = Week 0-60, Placebo/Adalimumab 40 mg eow (N = 52)
[4] = Week 12-60, 40 mg weekly (n = 50)
[5] = Week 12-60, Placebo/Adalimumab 40 mg eow + Adalimumab 40 mg eow (n = 92)
[6] = Weeks 0-12, 40 mg weekly (n = 50)
[7] = Weeks 0-12, 40 mg weekly, prior biologic use (n = 9)
[8] = Weeks 12-60, 40 mg weekly (n = 50)
[9] = Weeks 12-60, 40 mg weekly, no prior use (n = 24)
[10] = Weeks 12-60, 40 mg weekly, prior biologic use (n = 7)
[11] = Weeks 12-60, 40 mg weekly, prior systemic use (n = 21)
[12] = Weeks 12-60, Placebo/Adalimumab 40 mg eow + Adalimumab 40 mg eow (n = 92)
[13] = Weeks 12-60, placebo/adalimumab 40 mg eow + adalimumab 40 mg eow, no prior use (n = 47)
[14] = Weeks 12-60, placebo/adalimumab 40 mg eow + adalimumab 40 mg eow, prior biologic use (n = 16)
[15] = Weeks 12-60, placebo/adalimumab 40 mg eow + adalimumab 40 mg eow, prior systemic use (n = 35)
[16] = all patients, Weeks 0-12, 40 mg eow (N = 45)
[17] = all patients, Weeks 0-12, 40 mg weekly (N = 50)
[18] = all patients, Weeks 12-60, 40 mg weekly (n = 50)
[19] = all patients, Weeks 12-60, placebo/adalimumab 40 mg eow + adalimumab 40 mg eow (N = 92)
[20] = baseline PASI ≧10 and DLQI >10, Weeks 0-12, 40 mg eow (N = 26)
[21] = baseline PASI ≧10 and DLQI >10, Weeks 0-12, 40 mg weekly (N = 23)
[22] = baseline PASI ≧10 and DLQI >10, Weeks 12-60, 40 mg weekly (N = 23)
[23] = baseline PASI ≧10 and DLQI >10, Weeks 12-60, placebo/adalimumab 40 mg eow + adalimumab 40 mg eow (N = 41)
[24] = weeks 12-60, 40 mg weekly (N = 50)
[25] = weeks 12-60, placebo/adalimumab 40 mg eow + adalimumab 40 mg eow (N = 92)

From the text: The study was a randomized, double-blind, placebo-controlled, multi-center clinical trial, wherein patients were randomized to one of three treatment groups. The three treatment groups consisted of the following: • 1. […] Inclusion criteria included a diagnosis of moderate to severe chronic plaque psoriasis≧1 year prior to entry, a psoriasis-affected body surface area (BSA)>5%, and no previous use of TNF-antagonist therapy.
Inclusion criteria for the study included the following parameters: ≧18 years of age; moderate to severe chronic plaque psoriasis≧1 year; and affected BSA≧5%. […] Efficacy outcome measures included PASI and PGA.
Inclusion criteria included patients being 18 years of age; having moderate to severe chronic plaque psoriasis≧1 year; and affected BSA≧5%. Exclusion criteria included prior TNF-antagonist therapy and discontinuation of other systemic psoriasis therapies. Efficacy outcome measures which were used included PASI, PGA, DLQI.
Inclusion criteria included: • ≧18 years of age • Moderate to severe chronic plaque psoriasis 1 year • Affected BSA≧5% Exclusion criteria included: • Prior TNF-antagonist therapy • Discontinuation of other systemic psoriasis therapies Efficacy outcome was measured using PASI and DLQI responses/scores.

## Adalimumab: a human anti-TNF mAb, described in U.S. Pat. No. 6,090,382 as D2E7 (HUMIRA, Abbott Laboratories)
Week 0-12, 40 mg eow (N = 45)
  Withdrawals: Abnormal lab value, number of patients: 0
  Withdrawals: Adverse events, number of patients: 2
  Withdrawals: Lack of Efficacy, number of patients: 0
[1]
  Withdrawals: Abnormal lab value, number of patients: 1
  Withdrawals: Adverse events, number of patients: 2
  Withdrawals: Lack of Efficacy, number of patients: 0
Week 0-60, 40 mg eow (N = 45)
  Withdrawals: Abnormal lab value, number of patients: 0
  Withdrawals: Adverse events, number of patients: 4
  Withdrawals: Lack of Efficacy, number of patients: 6
[2]
  Withdrawals: Abnormal lab value, number of patients: 1
  Withdrawals: Adverse events, number of patients: 8
  Withdrawals: Lack of Efficacy, number of patients: 4
[3]
  Withdrawals: Abnormal lab value, number of patients: 0
  Withdrawals: Adverse events, number of patients: 2
  Withdrawals: Lack of Efficacy, number of patients: 6
[4]
  Back pain, number of patients: 4 n
  Back pain, percent of patients: (8.0) %
  Blood creatine phosphokinase increased, number of patients: 2 n
  Blood creatine phosphokinase increased, percent of patients: (4.0) %
  Blood triglycerides increased, number of patients: 2 n
  Blood triglycerides increased, percent of patients: (4.0) %
  Headache, number of patients: 6 n
  Headache, percent of patients: (12.0) %
  Muscle strain, number of patients: 4 n
  Muscle strain, percent of patients: (8.0) %
  Nasopharyngitis, number of patients: 6 n
  Nasopharyngitis, percent of patients: (12.0) %
  Skin papilloma, number of patients: 5 n
  Skin papilloma, percent of patients: (10.0) %
  Upper Respiratory Infection, Not otherwise specified, number of patients: 7 n
  Upper Respiratory Infection, Not otherwise specified, percent of patients: (14.0) %
  Upper Respiratory Infection, Viral not otherwise specified, number of patients: 3 n
  Upper Respiratory Infection, Viral not otherwise specified, percent of patients: (6.0) %
  Urticaria, number of patients: 3 n
  Urticaria, percent of patients: (6.0) %
[5]
  Back pain: 4 (4.3) n (%)
  Blood creatine phosphokinase increased: 5 (5.4) n (%)
  Blood triglycerides increased: 7 (7.6) n (%)
  Headache: 3 (3.3) n (%)
  Muscle strain: 1 (1.1) n (%)
  Nasopharyngitis: 13 (14.1) n (%)
  Skin papilloma: 3 (3.3) n (%)
  Upper Respiratory Infection, Viral not otherwise specified: 4 (4.3) n (%)
  Urticaria: 0 (0.0) n (%)
Weeks 0-12, 40 mg eow (n = 45)
  Adverse Events Leading to Withdrawal: 2 (4.4) n (%)
  Any Adverse Event: 28 (62.2) n (%)
  Serious Adverse Events: 1 (2.2 n (%)
[6]
  Adverse Events Leading to Withdrawal: 3 (6.0) n (%)
  Any Adverse Event: 39 (78.0) n (%)
  Serious Adverse Events: 4 (8.0) n (%)
[7]
  AE's→Withdrawal: 2 (22) n (%)
  Any AE: 6 (67) n (%)
  Serious AE: 2 (22) n (%)
[8]
  Adverse Events Leading to Withdrawal: 5 (10.0) n (%)
  Any Adverse Event: 39 (78.0) n (%)
  Serious Adverse Events: 7 (14.0) n (%)
[9]
  AE's→Withdrawal: (8) %
  AE's→Withdrawal, number of patients: 2
  Any AE: (79) %
  Any AE, number of patients: 19
  Serious AE: (17) %
  Serious AE, number of patients: 4
[10]
  AE's→Withdrawal: (0) %
  AE's→Withdrawal, number of patients: 0
  Any AE: (86) %
  Any AE, number of patients: 6
  Serious AE: (0) %
  Serious AE, number of patients: 0
[11]
  AE's→Withdrawal: (14) %
  AE's→Withdrawal, number of patients: 3
  Any AE: (81) %
  Any AE, number of patients: 17
  Serious AE: (10) %
  Serious AE, number of patients: 2
[12]
  Adverse Events Leading to Withdrawal: 3 (3.3) n (%)
  Any Adverse Event: 72 (78.3) n (%)
  Serious Adverse Events: 2 (2.2) n (%)
[13]
  AE's→Withdrawal: (2) %
  AE's→Withdrawal, number of patients: 1
  Any AE: (79) %
  Any AE, number of patients: 37
  Serious AE: (0) %
  Serious AE, number of patients: 0
[14]
  AE's→Withdrawal: (6) %
  AE's→Withdrawal, number of patients: 1
  Any AE: (75) %
  Any AE, number of patients: 12
  Serious AE: (13) %
  Serious AE, number of patients: 2
[15]
  AE's→Withdrawal: (6) %
  AE's→Withdrawal, number of patients: 2
  Any AE: (80) %
  Any AE, number of patients: 28
  Serious AE: (6) %
  Serious AE, number of patients: 2
Weeks 12-60, range across treatment groups
  patients who withdrew due to adverse events: 3-10%
[16]
  AEs leading to withdrawal: 2 (4) n (%) and 2 (4.4) n (%)
  Any AE: 28 (62) n (%) and 28 (62.2) n (%)
  Serious AEs: 1 (2) n (%) and 1 (2.2) n (%)
[17]
  AEs leading to withdrawal: 3 (6) n (%)
  Any AE: 39 (78) n (%)
  Serious AEs: 4 (8) n (%)
[18]
  AEs leading to withdrawal: 5 (10) n (%)
  Any AE: 39 (78) n (%)
  Serious AEs: 7 (14) n (%)
[19]
  AEs leading to withdrawal: 3 (3) n (%) and 3 (3.3) n (%)
  Any AE: 72 (78) n (%) and 72 (87.3) n (%)
  Serious AEs: 2 (2) n (%) and 2 (2.2) n (%)
[20]
  AEs leading to withdrawal: 0 (0) n (%)
  Any AE: 16 (62) n (%)
  Serious AEs: 0 (0) n (%)
[21]
  AEs leading to withdrawal: 1 (4) n (%)
  Any AE: 19 (83) n (%)
  Serious AEs: 2 (9) n (%)
[22]
  AEs leading to withdrawal: 0 (0) n (%)
  Any AE: 11 (48) n (%)
  Serious AEs: 0 (0) n (%)
[23]
  AEs leading to withdrawal: 2 (5) n (%)
  Any AE: 23 (56) n (%)
  Serious AEs: 1 (2) n (%)
Dosage escalation group
  Serious Adverse Events: no serious adverse events were observed
  withdrew from the study due to adverse events: two others
Dosage escalation group, listed as adalimumab
  Serious Adverse Events: One patient
Patients with PASI 75-99 and DLQI=0
  patients who had adverse events: 80%
Patients with PASI 75-99 and DLQI>0
  patients who had adverse events: 91%
Patients with PASI 100 and DLQI=0
  patients who had adverse events: 91%
Patients with PASI 100 and DLQI>0
  patients who had adverse events: 50%
prior-biologic patients
  patients with serious adverse events (SAEs): 4 patients
prior-systemic patients
  patients with serious adverse events (SAEs): 7 patients
[24]
  Back pain, number of patients: 4
  Back pain, percentage (in parentheses): (8.0)
  Blood CPK increased, number of patients: 2
  Blood CPK increased, percentage (in parentheses): (4.0)
  Blood TG increased, number of patients: 2
  Blood TG increased, percentage (in parentheses): (4.0)
  Headache, number of patients: 6
  Headache, percentage (in parentheses): (12.0)
  Muscle strain, number of patients: 4
  Muscle strain, percentage (in parentheses): (8.0)
  Nasopharyngitis, number of patients: 6
  Nasopharyngitis, percentage (in parentheses): (12.0)
  Skin papilloma, number of patients: 5
  Skin papilloma, percentage (in parentheses): (10.0)
  URI, NOS, number of patients: 7
  URI, NOS, percentage (in parentheses): (14.0)
  URI, viral NOS, number of patients: 3
  URI, viral NOS, percentage (in parentheses): (6.0)
  Urticari, number of patients: 3
  Urticari, percentage (in parentheses): (6.0)
[25]
  Back pain, number (percentage in parentheses): 4 (4.3)
  Blood CPK increased, number (percentage in parentheses): 5 (5.4)
  Blood TG increased, number (percentage in parentheses): 7 (7.6)
  Headache, number (percentage in parentheses): 3 (3.3)
  Muscle strain, number (percentage in parentheses): 1 (1.1)
  Nasopharyngitis, number (percentage in parentheses): 13 (14.1)
  Skin papilloma, number (percentage in parentheses): 3 (3.3)
  URI, NOS, number (percentage in parentheses): 9 (9.8)
  URI, viral NOS, number (percentage in parentheses): 4 (4.3)
  Urticari, number (percentage in parentheses): 0 (0.0)
Without recent prior systemic or biologic therapy
  patients with serious adverse events (SAEs): 5 patients
